In patent US20150093336A1 (VIB VZW, published 2015):

Experiments:
[1] = molecular target: T1, Recombinant human MMR (R&D systems) (human, UniProt P22897 19-1383); experiment: PE-ELISA, periplasmic extract on coated human MMR, anti-HA detection
T1 construct: Antigen of the PE-ELISA and the SPR; also called hMMR; recombinant hMMR
T1 sequence: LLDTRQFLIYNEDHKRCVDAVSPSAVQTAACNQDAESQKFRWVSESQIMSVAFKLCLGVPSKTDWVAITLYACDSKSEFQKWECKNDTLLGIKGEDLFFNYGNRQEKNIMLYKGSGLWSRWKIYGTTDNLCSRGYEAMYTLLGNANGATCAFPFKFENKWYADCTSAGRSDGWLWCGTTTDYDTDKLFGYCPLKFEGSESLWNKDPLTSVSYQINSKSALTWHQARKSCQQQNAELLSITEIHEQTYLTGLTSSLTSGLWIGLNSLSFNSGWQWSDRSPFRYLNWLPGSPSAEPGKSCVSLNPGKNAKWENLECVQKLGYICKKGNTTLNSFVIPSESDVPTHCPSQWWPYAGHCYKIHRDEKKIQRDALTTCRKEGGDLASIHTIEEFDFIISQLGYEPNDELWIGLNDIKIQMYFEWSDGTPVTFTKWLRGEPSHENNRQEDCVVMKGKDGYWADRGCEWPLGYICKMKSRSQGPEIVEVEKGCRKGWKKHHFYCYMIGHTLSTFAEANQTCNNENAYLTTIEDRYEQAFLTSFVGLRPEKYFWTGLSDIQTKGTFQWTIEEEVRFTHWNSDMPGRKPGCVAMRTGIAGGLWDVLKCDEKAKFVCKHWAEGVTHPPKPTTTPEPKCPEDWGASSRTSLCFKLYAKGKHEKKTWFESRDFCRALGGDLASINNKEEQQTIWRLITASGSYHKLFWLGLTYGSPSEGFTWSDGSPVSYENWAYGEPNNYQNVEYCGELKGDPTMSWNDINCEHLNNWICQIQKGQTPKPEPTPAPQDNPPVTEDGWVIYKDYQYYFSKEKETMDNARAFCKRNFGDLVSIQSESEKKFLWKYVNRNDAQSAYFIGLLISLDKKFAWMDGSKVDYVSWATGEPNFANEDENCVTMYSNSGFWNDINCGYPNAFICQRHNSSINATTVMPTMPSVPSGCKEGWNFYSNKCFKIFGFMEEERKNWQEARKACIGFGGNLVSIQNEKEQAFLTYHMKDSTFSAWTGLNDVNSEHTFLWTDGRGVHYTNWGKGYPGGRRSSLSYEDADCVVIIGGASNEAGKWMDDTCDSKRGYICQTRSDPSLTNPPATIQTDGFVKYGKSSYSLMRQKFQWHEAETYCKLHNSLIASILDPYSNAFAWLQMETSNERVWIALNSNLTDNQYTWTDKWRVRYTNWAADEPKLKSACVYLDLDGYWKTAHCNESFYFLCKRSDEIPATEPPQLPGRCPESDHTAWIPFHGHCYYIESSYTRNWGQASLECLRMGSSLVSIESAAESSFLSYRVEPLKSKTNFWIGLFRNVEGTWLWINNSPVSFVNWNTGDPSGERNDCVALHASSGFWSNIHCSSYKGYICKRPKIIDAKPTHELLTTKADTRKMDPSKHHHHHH

[2] = molecular target: T2, Mouse macrophage mannose receptor (MMR) expressed on tumor-associated macrophages of 3LL-R tumors (mouse, UniProt Q61830 20-1456); experiment: flow cytometry on CD11b+ Ly6G- TAMs of 3LL-R tumors gated on MHCII, HA-tagged Nb detected with Alexa Fluor 488 anti-HA
T2 construct: Endogenous receptor on ex vivo isolated CD11b+ Ly6G- TAMs (flow cytometry) and in mouse organs (biodistribution); also called mouse MMR; mMMR
T2 sequence: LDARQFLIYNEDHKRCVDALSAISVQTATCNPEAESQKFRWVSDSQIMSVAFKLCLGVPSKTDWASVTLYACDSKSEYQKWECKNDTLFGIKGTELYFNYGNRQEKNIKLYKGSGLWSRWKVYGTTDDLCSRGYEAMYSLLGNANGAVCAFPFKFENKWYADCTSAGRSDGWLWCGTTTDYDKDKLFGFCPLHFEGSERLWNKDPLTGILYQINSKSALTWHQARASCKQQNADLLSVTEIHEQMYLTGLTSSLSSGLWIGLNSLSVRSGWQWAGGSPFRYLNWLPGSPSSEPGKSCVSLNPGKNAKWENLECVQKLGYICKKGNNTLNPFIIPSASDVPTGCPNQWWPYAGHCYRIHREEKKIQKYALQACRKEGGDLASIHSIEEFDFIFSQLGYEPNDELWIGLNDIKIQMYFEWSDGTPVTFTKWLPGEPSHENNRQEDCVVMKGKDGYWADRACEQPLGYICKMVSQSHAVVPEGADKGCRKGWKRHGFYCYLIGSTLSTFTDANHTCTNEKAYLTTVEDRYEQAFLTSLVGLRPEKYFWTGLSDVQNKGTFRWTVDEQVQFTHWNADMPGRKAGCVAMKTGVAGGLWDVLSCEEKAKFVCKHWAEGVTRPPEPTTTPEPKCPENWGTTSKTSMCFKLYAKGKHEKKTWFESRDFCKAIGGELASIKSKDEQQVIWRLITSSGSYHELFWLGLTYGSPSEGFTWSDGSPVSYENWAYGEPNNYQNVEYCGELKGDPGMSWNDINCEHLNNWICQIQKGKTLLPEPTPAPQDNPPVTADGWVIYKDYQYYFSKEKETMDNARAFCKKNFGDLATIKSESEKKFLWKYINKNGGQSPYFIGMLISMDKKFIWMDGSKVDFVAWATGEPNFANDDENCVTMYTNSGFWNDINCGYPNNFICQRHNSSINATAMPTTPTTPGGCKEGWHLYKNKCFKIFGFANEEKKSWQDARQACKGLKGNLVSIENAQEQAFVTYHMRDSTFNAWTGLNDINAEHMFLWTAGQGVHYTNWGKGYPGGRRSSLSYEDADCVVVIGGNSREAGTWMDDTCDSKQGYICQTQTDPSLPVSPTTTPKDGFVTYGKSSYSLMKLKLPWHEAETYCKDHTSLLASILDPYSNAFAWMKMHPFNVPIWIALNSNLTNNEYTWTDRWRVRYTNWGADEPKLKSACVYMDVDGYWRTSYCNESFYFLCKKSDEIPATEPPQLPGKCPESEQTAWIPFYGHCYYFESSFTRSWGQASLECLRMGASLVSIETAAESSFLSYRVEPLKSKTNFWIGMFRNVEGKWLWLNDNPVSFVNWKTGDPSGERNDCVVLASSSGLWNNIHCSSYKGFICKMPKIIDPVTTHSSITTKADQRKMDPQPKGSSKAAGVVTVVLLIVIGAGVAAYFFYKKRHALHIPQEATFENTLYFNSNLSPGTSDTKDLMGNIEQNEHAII
Procedure: FIG. 6: MMR-specific Nbs bind to mouse MMR expressed on ex vivo isolated macrophages. 3LL-R tumors were induced by injecting 3×10⁶ cancer cells subcutaneously in C57Bl/6 mice. After 15 days of tumor growth, the tumors were isolated and single cell suspensions were prepared to be analyzed by flow cytometry. The CD11b+Ly6G tumor-associated macrophages (TAM) were further gated on MHCII expression. The histograms depict MMR expression as defined by Nb binding on MHCII^low and MHCII^high TAMs. Shaded histograms depict binding of the negative control Nb BCII10.
For examining specific binding of the anti-MMR sdAbs to mouse MMR, 3LL-R tumors were induced by injecting 3 E6 cancer cells subcutaneously in C57Bl/6 mice. After 15 days of tumor growth, the tumors were isolated, chopped and incubated for 25 minutes (37° C.) with 10 U/ml Collagenase type I, 400 U/ml Collagenase type IV, and 30 U/ml DNAseI (Worthington). Density gradients (Axis-Shield) were used to remove tissue debris and dead cells. sdAbs were added at 10 μg/ml to 1 E6 cells per tube. […] Binding profiles of anti-MMR sdAbs were recorded.

B1: NbhMMRm4.83 (VHH)
VHH: QVQLQESGGGLVQPGGSLRLSCAASGPGFKLDYYAIAWFRQAPGKEREGVSCIGGSGSGLTTYVENSVKDRFTISRDNAQNTVYLHMNSLKPEDTGIYYCAADTYYYCSKRVWRNDYGSWGQGTQVTVSS
notes: Only tested as periplasmic extract in PE-ELISA; clone carries C-terminal HA and 6xHis tag
binding result [1]: binds

B2: anti-mouse MMR sdAb clone 1 (VHH)
VHH: QVQLQESGGGLVQPGGSLRLSCAASGNIFSINAIGWYRQAPGKQRELVATITLSGSTNYADSVKGRFSISRDNAKNTVYLQMNSLKPEDTAVYYCNANTYSDSDVYGYWGQGTQVTVSS
notes: also called anti-mMMR Nb clone 1; anti-mouse MMR clone 1
binding result [2]: binds
